Test results reported in article PMC5354205, “Structure and assembly of scalable porous protein cages” (Nature Communications, 2017).
Numbering of substitutions follows the chain as printed. “And” between values parts separate entries of the source, which are not always exact repeats. Equal entries are not always repeated.

What was measured:
[1] = target: AaLS-neg (lumazine synthase from Aquifex aeolicus with R83E, T86E, T120E, Q123E), C-terminal His6-tag (Aquifex aeolicus) (UniProt O66529); assay: cryo-EM structure; single-particle reconstruction; 20 mM Tris-HCl pH 7.8, 0.2 M NaCl, 5 mM EDTA; monomer 80, 80 and 300 uM; Titan Krios 300 kV
[2] = target: lumazine synthase from Aquifex aeolicus, wild-type protein (AaLS-wt), C-terminal His6-tag (Aquifex aeolicus) (UniProt O66529); assay: as above
[3] = target: lumazine synthase from Aquifex aeolicus, wild-type protein (AaLS-wt), C-terminal His6-tag (Aquifex aeolicus) (UniProt O66529); assay: native MS; 5 uM monomer in 150 mM ammonium acetate, 25 mM triethylammonium acetate, pH 7.8; modified qTOF, nano-electrospray, positive ion mode; subunit copy number of the cage
[4] = target: the molecule itself; assay: native MS; AaLS-neg pre-incubated in low ionic strength buffer: 10 mM ammonium acetate, pH 7.8; cage dissociated into smaller capsomers
[5] = target: the molecule itself; assay: native MS; 5 uM monomer in 150 mM ammonium acetate, 25 mM triethylammonium acetate, pH 7.8; modified qTOF, nano-electrospray, positive ion mode; subunit copy number of the cage

Molecule: AaLS-neg (lumazine synthase from Aquifex aeolicus with R83E, T86E, T120E, Q123E), C-terminal His6-tag (from UniProt O66529 1-154)
- stoichiometry N [1]: 180

Molecule: lumazine synthase from Aquifex aeolicus, wild-type protein (AaLS-wt), C-terminal His6-tag (from UniProt O66529 1-154) (enzyme)
- stoichiometry N [2]: 60
- stoichiometry N [3]: 60

B1: AaLS-neg lacking a His6-tag (pMG211_AaLS-neg_noHis) (other, Aquifex aeolicus, UniProt O66529 1-154, looked up)
chain: MEIYEGKLTAEGLRFGIVASRFNHALVDRLVEGAIDCIVRHGGREEDITLVRVPGSWEIPVAAGELARKEDIDAVIAIGVLIEGAEPHFDYIASEVSKGLANLSLELRKPITFGVITADELEEAIERAGTKHGNKGWEAALSAIEMANLFKSLR
notes: lumazine synthase, Aquifex aeolicus, with four lumenal residues mutated to glutamate; Made for native MS; 180-mer in 150 mM ammonium acetate; pentamers, 10-mers and 15-mers after low ionic strength; source: E. coli BL21-gold (DE3), purified (lysate heated at 85 °C, MonoQ anion exchange, SEC Sephacryl S-400); copies: 180
- stoichiometry N [4]: 5 and 10 and 15
- stoichiometry N [5]: 180

B2: AaLS-13 lacking a His6-tag (pMG211_AaLS-13_noHis) (other, Aquifex aeolicus, UniProt O66529 1-154, looked up)
chain: B1 chain with D28G, R52C, T112S, V115D, A118D, R127C, K131E
notes: lumazine synthase, Aquifex aeolicus, with the four mutations of AaLS-neg and seven more from directed evolution; Made for native MS; charge states not resolved, the copy number only estimated (240 to 420); source: E. coli BL21-gold (DE3), purified (ammonium sulphate, MonoQ anion exchange, SEC Sephacryl S-400; 3 mM DTT added)
- stoichiometry N [5]: 240 to 420
